What was measured:
NRAS (K135R) = target: T1, NRAS (K135R) (human, UniProt P01111 1-174, limits assumed); experiment: BLI; sensorgrams at 100 nM and 25 nM with fit; nucleotide state not marked
T1 construct: also called NRAS mutant with the H/KRAS-mimicking mutation K135R

NRAS [1] = target: T2, NRAS (human, UniProt P01111 1-174, limits assumed); experiment: BLI; biotinylated monobody on streptavidin tip, NRAS(WT)·GDP at 50, 25, 12.5 and 6.25 nM; global 1:1 fit
T2 construct: also called Neuroblastoma-RAS; NRAS (WT)

NRAS [2] = target: T2, NRAS; experiment: BLI; biotinylated monobody on streptavidin tip, NRAS(WT)·GTPγS at 50, 25, 12.5 and 6.25 nM; global 1:1 fit
NRAS [3] = target: T2, NRAS; experiment: BLI; biotinylated monobody on streptavidin tip, NRAS at 50, 25, 12.5 and 6.25 nM; global 1:1 fit; upper left panel, untitled on this sheet, NRAS(WT)·GDP by the layout of FIG. 2A
NRAS [4] = target: T2, NRAS; experiment: BLI; biotinylated monobody on streptavidin tip, NRAS at 50, 25, 12.5 and 6.25 nM; global 1:1 fit; upper right panel, untitled on this sheet, NRAS(WT)·GTPγS by the layout of FIG. 2A
NRAS [5] = target: T2, NRAS; experiment: BLI; biotinylated monobody on streptavidin tip, NRAS at 50, 25, 12.5 and 6.25 nM; global 1:1 fit; upper left panel, untitled on this sheet, NRAS(WT)·GDP by the layout of FIG. 2A; remark: listed apart in the source
NRAS [6] = target: T2, NRAS; experiment: BLI; biotinylated monobody on streptavidin tip, NRAS at 50, 25, 12.5 and 6.25 nM; global 1:1 fit; upper right panel, untitled on this sheet, NRAS(WT)·GTPγS by the layout of FIG. 2A; remark: listed apart in the source
NRAS [7] = target: T2, NRAS; experiment: yeast display, cells sorted for binding to NRAS (WT);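 note: Yeast-displayed monobody variants with one or two residue substitutions, monobody sequences read from cells recovered by sorting for binding to wild-type NRAS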

| binding result (NRAS [7]) | Binder | further results |
| --- | --- | --- |
| binds | Mb(NRAS_24) with the FG loop of SEQ ID NO: 61 (designed binder, length of the loop entry not visible) VSSVPTKLEVVAATPTSLLISWDAPAVTVDFYVITYGETGGYAWAYQEFKVPGSKSTATISGLSPGVDYTITVYAYQVIYHIWKYYSPISINYRT | – |
| binds | Mb(NRAS_24) with the FG loop of SEQ ID NO: 62 (designed binder, length of the loop entry not visible) VSSVPTKLEVVAATPTSLLISWDAPAVTVDFYVITYGETGGYAWAYQEFKVPGSKSTATISGLSPGVDYTITVYAYQVIYYIWKYYSPISINYRT | – |
| binds | Mb(NRAS_24) with the FG loop of SEQ ID NO: 57 (designed binder, length of the loop entry not visible) VSSVPTKLEVVAATPTSLLISWDAPAVTVDFYVITYGETGGYAWAYQEFKVPGSKSTATISGLSPGVDYTITVYAYQVISHIWKYYSPISINYRT | – |
| binds | Mb(NRAS_24) with the FG loop of SEQ ID NO: 56 (designed binder, length of the loop entry not visible) VSSVPTKLEVVAATPTSLLISWDAPAVTVDFYVITYGETGGYAWAYQEFKVPGSKSTATISGLSPGVDYTITVYAYQVIRYIWKYYSPISINYRT | – |
| binds | Mb(NRAS_24) with the FG loop of SEQ ID NO: 55 (designed binder, length of the loop entry not visible) VSSVPTKLEVVAATPTSLLISWDAPAVTVDFYVITYGETGGYAWAYQEFKVPGSKSTATISGLSPGVDYTITVYAYQVIRSIWKYYSPISINYRT | – |
| binds | Mb(NRAS_24) with the FG loop of SEQ ID NO: 63 (designed binder, length of the loop entry not visible) VSSVPTKLEVVAATPTSLLISWDAPAVTVDFYVITYGETGGYAWAYQEFKVPGSKSTATISGLSPGVDYTITVYAYQVSGAIWKYYSPISINYRT | – |

The next lines start with the binder.

| Binder | binding result (NRAS [7]) | further results |
| --- | --- | --- |
| Mb(NRAS_19) (designed binder) VSSVPTKLEVVAATPTSLLISWDAPAVTVDFYVITYGETGSYYPYAQEFKVPGSKSTATISGLSPGVDYTITVYAYQVIGAIWKYYSPISINYRT | – | Kd (NRAS (K135R)): 6.6 nM; Kd (NRAS [1]): 1.8 nM; Kd (NRAS [2]): 0.83 nM |
| Mb(NRAS_24) (designed binder) VSSVPTKLEVVAATPTSLLISWDAPAVTVDFYVITYGETGGYAWAYQEFKVPGSKSTATISGLSPGVDYTITVYAYQVIGAIWKYYSPISINYRT | – | Kd (NRAS (K135R)): 5.6 nM; Kd (NRAS [3]): 2.6 nM; Kd (NRAS [4]): 0.52 nM |
| Mb(NRAS_20) (designed binder) VSSVPTKLEVVAATPTSLLISWDAPAVTVDFYVITYGETGAYYPYAQEFKVPGSKSTATISGLSPGVDYTITVYAYQVIGAIWKYYSPISINYRT | – | Kd (NRAS (K135R)): 9.5 nM; Kd (NRAS [5]): 3.3 nM; Kd (NRAS [6]): 1.1 nM |
| Mb(NRAS_24) with the FG loop of SEQ ID NO: 53 (designed binder, length of the loop entry not visible) VSSVPTKLEVVAATPTSLLISWDAPAVTVDFYVITYGETGGYAWAYQEFKVPGSKSTATISGLSPGVDYTITVYAYQVILHIWKYYSPISINYRT | binds | – |
| Mb(NRAS_24) with the FG loop of SEQ ID NO: 67 (designed binder, length of the loop entry not visible) VSSVPTKLEVVAATPTSLLISWDAPAVTVDFYVITYGETGGYAWAYQEFKVPGSKSTATISGLSPGVDYTITVYAYQYYGAIWKYYSPISINYRT | binds | – |
| Mb(NRAS_24) with the FG loop of SEQ ID NO: 59 (designed binder, length of the loop entry not visible) VSSVPTKLEVVAATPTSLLISWDAPAVTVDFYVITYGETGGYAWAYQEFKVPGSKSTATISGLSPGVDYTITVYAYQVISYIWKYYSPISINYRT | binds | – |
| Mb(NRAS_24) with the FG loop of SEQ ID NO: 65 (designed binder, length of the loop entry not visible) VSSVPTKLEVVAATPTSLLISWDAPAVTVDFYVITYGETGGYAWAYQEFKVPGSKSTATISGLSPGVDYTITVYAYQYHGAIWKYYSPISINYRT | binds | – |
| Mb(NRAS_24) with the FG loop of SEQ ID NO: 66 (designed binder, length of the loop entry not visible) VSSVPTKLEVVAATPTSLLISWDAPAVTVDFYVITYGETGGYAWAYQEFKVPGSKSTATISGLSPGVDYTITVYAYQYVGAIWKYYSPISINYRT | binds | – |
| Mb(NRAS_24) with the FG loop of SEQ ID NO: 60 (designed binder, length of the loop entry not visible) VSSVPTKLEVVAATPTSLLISWDAPAVTVDFYVITYGETGGYAWAYQEFKVPGSKSTATISGLSPGVDYTITVYAYQVITHIWKYYSPISINYRT | binds | – |
| Mb(NRAS_24) with the FG loop of SEQ ID NO: 64 (designed binder, length of the loop entry not visible) VSSVPTKLEVVAATPTSLLISWDAPAVTVDFYVITYGETGGYAWAYQEFKVPGSKSTATISGLSPGVDYTITVYAYQYEGAIWKYYSPISINYRT | binds | – |
| Mb(NRAS_24) with the FG loop of SEQ ID NO: 58 (designed binder, length of the loop entry not visible) VSSVPTKLEVVAATPTSLLISWDAPAVTVDFYVITYGETGGYAWAYQEFKVPGSKSTATISGLSPGVDYTITVYAYQVISSIWKYYSPISINYRT | binds | – |
| Mb(NRAS_24) with the FG loop of SEQ ID NO: 54 (designed binder, length of the loop entry not visible) VSSVPTKLEVVAATPTSLLISWDAPAVTVDFYVITYGETGGYAWAYQEFKVPGSKSTATISGLSPGVDYTITVYAYQVIRHIWKYYSPISINYRT | binds | – |

From patent US20260263609A1 (NEW YORK UNIVERSITY, published 2026)
